Reference: patent US20060257938A1, “Method of screening for drugs that block ligand binding to a lipid binding protein” (priority 2005, published 2006)
Substitutions are numbered along the chain they refer to.

B1: 38M 104S 115A 74F 72A (protein, listed as Rattus norvegicus)
chain: AFDGTWKVDRNENYEKFMEKMGINVVKRKLGAHDNLKMTITQEGNKFTVKESSNFRNIDVVFELGVDFAYSAAFGTELTGTWTMEGNKLVGKFKRVDNGKELISVREISGNELIATYTYEGVEAKRIFKKE
modifications: PEPTIDE (1)...(131) wild-type rat intestinal fatty acid binding protein
B2: 18V 31Y 73I 72A (protein, listed as Rattus norvegicus)
chain: B1 chain with M18V, G31Y, M38L, A73I, F74D, S104A, A115Q
modifications: PEPTIDE (1)...(131) wild-type rat intestinal fatty acid binding protein
B3: 14I 18L 31W 73V 117G 72A (protein, listed as Rattus norvegicus)
chain: B1 chain with Y14I, M18L, G31W, M38L, A73V, F74D, S104A, A115Q, Y117G
modifications: PEPTIDE (1)...(131) wild-type rat intestinal fatty acid binding protein
B4: 14W 18L 117S 72A (protein, listed as Rattus norvegicus)
chain: B1 chain with Y14W, M18L, M38L, F74D, S104A, A115Q, Y117S
modifications: PEPTIDE (1)...(131) wild-type rat intestinal fatty acid binding protein
B5: 78F 102I 72A (protein, listed as Rattus norvegicus)
chain: B1 chain with M38L, F74D, L78F, L102I, S104A, A115Q
modifications: PEPTIDE (1)...(131) wild-type rat intestinal fatty acid binding protein
B6: 14A 18Y 31W 73G 117V 72A (protein, listed as Rattus norvegicus)
chain: B1 chain with Y14A, M18Y, G31W, M38L, A73G, F74D, S104A, A115Q, Y117V
modifications: PEPTIDE (1)...(131) wild-type rat intestinal fatty acid binding protein
B7: 14I 18V 31W 73I 117V 72A (protein, listed as Rattus norvegicus)
chain: B1 chain with Y14I, M18V, G31W, M38L, A73I, F74D, S104A, A115Q, Y117V
modifications: PEPTIDE (1)...(131) wild-type rat intestinal fatty acid binding protein
B8: 18V 31I 55L 73V 72A (protein, listed as Rattus norvegicus)
chain: B1 chain with M18V, G31I, M38L, F55L, A73V, F74D, S104A, A115Q
modifications: PEPTIDE (1)...(131) wild-type rat intestinal fatty acid binding protein
B9: 14L 18L 31W 73W 117L 72A (protein, listed as Rattus norvegicus)
chain: B1 chain with Y14L, M18L, G31W, M38L, A73W, F74D, S104A, A115Q, Y117L
modifications: PEPTIDE (1)...(131) wild-type rat intestinal fatty acid binding protein
B10: 18V 31Y 73V 72A (protein, listed as Rattus norvegicus)
chain: B1 chain with M18V, G31Y, M38L, A73V, F74D, S104A, A115Q
modifications: PEPTIDE (1)...(131) wild-type rat intestinal fatty acid binding protein
B11: 38A 106V 117A 72A (protein, listed as Rattus norvegicus)
chain: B1 chain with M38A, F74D, S104A, R106V, A115Q, Y117A
modifications: PEPTIDE (1)...(131) wild-type rat intestinal fatty acid binding protein
B12: 38Q 62I 106I 117A 72A (protein, listed as Rattus norvegicus)
chain: B1 chain with M38Q, F62I, F74D, S104A, R106I, A115Q, Y117A
modifications: PEPTIDE (1)...(131) wild-type rat intestinal fatty acid binding protein

assay: Probe fluorescence ratio response to arachidonic acid relative to ADIFAB2; assay type: binding; conditions: arachidonic acid; response relative to ADIFAB2
Method in brief: (§1)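 Each fatty acid's response was expressed relative to ADIFAB2, the rI-FABP-L72A probe, as ΔR/ΔRreference. ΔR is the change in the background-corrected two-wavelength intensity ratio R=Fλ1/Fλ2 from its analyte-free baseline R0. Emission was read near about 420-480 nm for unbound and about 495-580 nm for FFA-bound probe.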

Going from B1 to B2, the “DR/DR AA” value rises from 1.690 to 1.946.

Going from B3 to B4, the “DR/DR AA” value falls from 2.037 to 0.976.

Compared with B5, B6 is lower in “DR/DR AA” value: 2.093 for the first, 0.365 for the second.

Compared with B7, B8 is higher in “DR/DR AA” value: 1.553 for the first, 2.273 for the second.

Going from B9 to B10, the “DR/DR AA” value rises from 1.772 to 2.400.

First: B11
Second: B12
The “DR/DR AA” value of the first is lower: 1.492 for the first, 1.656 for the second.

assay: Probe fluorescence ratio response to linolenic acid relative to ADIFAB2; assay type: binding; conditions: response relative to ADIFAB2
Method in brief: as §1

First: B1
Second: B2
The “DR/DR LNA” value of the first is lower: 1.615 for the first, 2.537 for the second.

First: B3
Second: B4
The “DR/DR LNA” value of the first is higher: 1.960 for the first, 0.835 for the second.

Going from B5 to B6, the “DR/DR LNA” value falls from 2.322 to 0.940.

First: B7
Second: B8
The “DR/DR LNA” value of the first is lower: 1.495 for the first, 2.433 for the second.

First: B9
Second: B10
The “DR/DR LNA” value of the first is lower: 1.640 for the first, 2.605 for the second.

First: B11
Second: B12
The “DR/DR LNA” value of the first is lower: 0.541 for the first, 0.930 for the second.

assay: Probe fluorescence ratio response to linoleic acid relative to ADIFAB2; assay type: binding; conditions: response relative to ADIFAB2
Method in brief: as §1

Going from B1 to B2, the “DR/DR LA” value rises from 1.778 to 2.619.

Compared with B3, B4 is lower in “DR/DR LA” value: 2.047 for the first, 1.063 for the second.

Going from B5 to B6, the “DR/DR LA” value falls from 2.493 to 1.018.

Going from B7 to B8, the “DR/DR LA” value rises from 1.668 to 2.680.

Compared with B9, B10 is higher in “DR/DR LA” value: 1.782 for the first, 2.780 for the second.

First: B11
Second: B12
The “DR/DR LA” value of the first is lower: 0.229 for the first, 1.288 for the second.

assay: Probe fluorescence ratio response to oleic acid relative to ADIFAB2; assay type: binding; conditions: response relative to ADIFAB2
Method in brief: as §1

First: B1
Second: B2
The “DR/DR OA” value of the first is lower: 1.155 for the first, 2.007 for the second.

Compared with B3, B4 is lower in “DR/DR OA” value: 1.756 for the first, 0.904 for the second.

Compared with B5, B6 is lower in “DR/DR OA” value: 2.506 for the first, 0.518 for the second.

First: B7
Second: B8
The “DR/DR OA” value of the first is lower: 0.887 for the first, 2.254 for the second.

Compared with B9, B10 is higher in “DR/DR OA” value: 1.085 for the first, 2.349 for the second.

Going from B11 to B12, the “DR/DR OA” value rises from 0.368 to 1.167.

assay: Probe fluorescence ratio response to palmitic acid relative to ADIFAB2; assay type: binding; conditions: response relative to ADIFAB2
Method in brief: as §1

First: B1
Second: B2
The “DR/DR PA” value of the first is lower: 0.498 for the first, 1.784 for the second.

First: B3
Second: B4
The “DR/DR PA” value of the first is higher: 1.236 for the first, 0.377 for the second.

Going from B5 to B6, the “DR/DR PA” value falls from 1.434 to 0.421.

Going from B7 to B8, the “DR/DR PA” value rises from 0.652 to 1.253.

Compared with B9, B10 is higher in “DR/DR PA” value: 0.970 for the first, 1.534 for the second.

Compared with B11, B12 is higher in “DR/DR PA” value: 0.033 for the first, 0.550 for the second.

assay: Probe fluorescence ratio response to palmitoleic acid relative to ADIFAB2; assay type: binding; conditions: response relative to ADIFAB2
Method in brief: as §1

Compared with B1, B2 is higher in “DR/DR POA” value: 1.172 for the first, 2.528 for the second.

Compared with B3, B4 is lower in “DR/DR POA” value: 1.770 for the first, 0.811 for the second.

First: B5
Second: B6
The “DR/DR POA” value of the first is higher: 2.022 for the first, 0.883 for the second.

First: B7
Second: B8
The “DR/DR POA” value of the first is lower: 1.411 for the first, 2.285 for the second.

First: B9
Second: B10
The “DR/DR POA” value of the first is lower: 2.059 for the first, 2.376 for the second.

First: B11
Second: B12
The “DR/DR POA” value of the first is lower: 0.121 for the first, 0.473 for the second.

assay: Probe fluorescence ratio response to stearic acid relative to ADIFAB2; assay type: binding; conditions: response relative to ADIFAB2
Method in brief: as §1

First: B1
Second: B2
The “DR/DR SA” value of the first is lower: 0.356 for the first, 1.139 for the second.

Compared with B3, B4 is lower in “DR/DR SA” value: 0.606 for the first, 0.297 for the second.

First: B5
Second: B6
The “DR/DR SA” value of the first is higher: 1.877 for the first, 0.158 for the second.

Compared with B7, B8 is higher in “DR/DR SA” value: 0.283 for the first, 1.233 for the second.

First: B9
Second: B10
The “DR/DR SA” value of the first is lower: 0.294 for the first, 1.330 for the second.

Compared with B11, B12 is higher in “DR/DR SA” value: 0.065 for the first, 0.663 for the second.
